Assay results from the supplement of paper PMC7125110.
± gives the standard error. This sample holds only a part of the variants without activity.

B1: glmS ribozyme (parent)
chain: AUAAAAGCGCCAGAACUACAGAAAUGUAGUUGACGAGGAGGAGGUUUAUCGAAUUUUCGGCGGAUGCCUCCAAA

Variants of: B1
Experiment: self-cleavage kobs at 640 uM GlcN6P; higher = faster cleavage; RNA array
Settings: with glucosamine-6-phosphate
Procedure, shortened: (§1)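 Barcoded ribozyme variants were transcribed in situ on sequenced MiSeq chips by E. coli RNA polymerase. At 37 °C, a hybridised Cy3 probe tracked them while glucosamine-6-phosphate (40 μM to 10 mM) in HEPES/KCl/Mg(OAc)2 buffer flowed in and tiles were imaged over ~14 h. Per-tile medians of signals normalised to baseline and to non-cleaving reference variants were fit to one- or two-exponential decays, giving kobs. kcat and KM came from weighted Michaelis–Menten fits across concentrations.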

Row | Variant | self-cleavage kobs at 640 uM GlcN6P [s⁻¹]
1 | AUAAAAGCGCAAGAACUACAGAAAUGUAGUUGACGAGGAGGAGGUUUAUCGAGUUUUCGGCGAAUGCCUCCAAA | < 1e-05
2 | AUAAAAGCGUCCGAACUACAGAAAUGUAGUUGACGAGGAAGAGGUUUAUCGAAUUUUCGGCGGAUGCCUCCAAA | < 1e-05
3 | AUAAAAGCGUCAGAACUACAGAAAUGUAGUUAACGAGGAGGAGGUUUAACGAAUUUUCGGCGGAUGCCUCCAAA | < 1e-05
4 | AUAAAAGCGUCAGAACUACAGAAAUGUAGUCGACGAGGAGGAGGUUUAUCGUAUUUUCGGCGGAUGCCUCCAAA | < 1e-05
5 | AUAAAAGCGGAAGAAAUACAGAAAUGUAGUUGACGAGGAGGAGGUUUAUCGAAUUUUGGGCGGAUGCCUCGAAA | 0.00176 ± 0.00062
6 | AUAAAAGCGUCAGAACUACAGAAAUGUAGUUGACGAGGAGGAGGUUUAACGAAUAUUCGGCGGAUGCCUCCAAA | < 1e-05
7 | AUAAAAGCGUCAGAACUACAGAAAUGUAGUUGACGAGGAGGAGGUUUAUGGAAUUUUCGGCGGAUGCUUCAAAA | 9.29e-05 ± 2.6e-05
8 | AUAAAAGCGGAAGAACUACAGAAAUGUAGUCGACCAGGAGGAGGUUUAUCGAAUUUUCGGCGGAUGCCUGCAAA | 0.00013 ± 6.3e-05
9 | AUAAAAGCGUCAGAACUACAGAAAUGUAGUUGACGAGGAGGAUGGUUAUCGAAUUUUCGGCGGAUGCCUCCAAA | < 1e-05
10 | AUAAAAGCGUCAGAACUACAGAAAUGUAGUUGACGAGGAGGAGGUUUAUCGAAUUUUCGACGGAUGACUCCAAA | < 1e-05
11 | AUAAAAGCGUCAGAACUACAGAAAUGUAGUUCACAAGGAGGAGGUUUAUCGAAUUUUCGGCGGAUGCCUCCAAA | < 1e-05
12 | AUAAAAGCGUCAGAACUACAGAAAUGUAGUUGACGUGGAGAAGGUUUAUCGAAUUUUCGGCGGAUGCCUCCAAA | < 1e-05
13 | AUAAAAGCGUCAGAACUACAGAAAUGUAGUUGACCAGGAGGAGGUUUAUCGAAUUUUCGGCCGAUGCCUCCAAA | < 1e-05
14 | AUAAAAGCGGCACAACUACAGAAAUGUAGUUGACGAGGGGGAGGUUUAUCGAAUUUUCGGCGGAUGCCUCCAAA | < 1e-05
15 | AUAAAAGCGGCAGAACUACAGAAAUGUAGUUGACGAGGAGGAGGUUUACCGAAUUUUCGGCGGAUCCCUCCAAA | < 1e-05
16 | AUAAAAGCGGCAGAACUACAGAAAUGUAGUUGACGAGGAGGAGGUUUAUCGAUUUUACGGCGGAUGCCUCCAAA | < 1e-05
17 | AUAAAAGCGUCAGAACUACAGAAAUGUAGUUGACGAGGCGAAGGUAUAUCGAAUUUUCGGCGGAUGCCUCCAAA | < 1e-05
18 | AUAAAAGCGCAAGAACUACAGAAAUGUAGUUGACGAGUUGGAGGUUUAUCGAAUUUUCGACGGAUGCCUCCAAA | < 1e-05
19 | AUAAAAGCGCAAGAACUACAGAAAUGUAGUUGACGAGGGGGAGGUUUAUCGAAUUUUCGGCGGAUGCCUCCAAA | 0.000101 ± 2.7e-05
20 | AUAAAAGCGGCAAAACUACAGAAAUGUAGUUGACGAGGAGGAAGUUUAUUGAAUUUUCGGCGGAUGCCUCCAAA | < 1e-05
21 | AUAAAAGCGUCAGAACUACAGAAAUGUAGUUGACGAGGUGUAGGUUUAUCGAAUUUUCGGCGGAUGCCUCCAAA | < 1e-05
22 | AUAAAAGCGUCAGAACUACAGAAAUGUAGUUGACGAGGAGGAGGUUGAUCUAAUUUCGGGCGGUUGCCUCCAAA | < 1e-05

Variants of: B1
Experiment: self-cleavage kobs at 2500 uM GlcN6P; higher = faster cleavage; RNA array
Settings: with glucosamine-6-phosphate
Procedure, shortened: as §1

Row | Variant | self-cleavage kobs at 2500 uM GlcN6P [s⁻¹]
23 | AUAAAAGCGUCCGAACUACAGAAAUGUAGUUGACGAGGAAGAGGUUUAUCGAAUUUUCGGCGGAUGCCUCCAAA | < 1e-05
24 | AUAAAAGCGGAAGAAAUACAGAAAUGUAGUUGACGAGGAGGAGGUUUAUCGAAUUUUGGGCGGAUGCCUCGAAA | 0.000241 ± 0.0001
25 | AUAAAAGCGUCAGAACUACAGAAAUGUAGUUGACGAGGAGGAGGUUUAUGGAAUUUUCGGCGGAUGCUUCAAAA | 0.000111 ± 2.9e-05
26 | AUAAAAGCGUCAGAACUACAGAAAUGUAGUUGACGAGGAGGAUGGUUAUCGAAUUUUCGGCGGAUGCCUCCAAA | < 1e-05
27 | AUAAAAGCGUCAGAACUACAGAAAUGUAGUUCACAAGGAGGAGGUUUAUCGAAUUUUCGGCGGAUGCCUCCAAA | < 1e-05
28 | AUAAAAGCGUCAGAACUACAGAAAUGUAGUUGACGUGGAGAAGGUUUAUCGAAUUUUCGGCGGAUGCCUCCAAA | < 1e-05
29 | AUAAAAGCGUCAGAACUACAGAAAUGUAGUUGACCAGGAGGAGGUUUAUCGAAUUUUCGGCCGAUGCCUCCAAA | < 1e-05
30 | AUAAAAGCGGCACAACUACAGAAAUGUAGUUGACGAGGGGGAGGUUUAUCGAAUUUUCGGCGGAUGCCUCCAAA | < 1e-05
31 | AUAAAAGCGGCAGAACUACAGAAAUGUAGUUGACGAGGAGGAGGUUUACCGAAUUUUCGGCGGAUCCCUCCAAA | < 1e-05
32 | AUAAAAGCGUCAGAACUACAGAAAUGUAGUUGACGAGGCGAAGGUAUAUCGAAUUUUCGGCGGAUGCCUCCAAA | < 1e-05
33 | AUAAAAGCGCAAGAACUACAGAAAUGUAGUUGACGAGUUGGAGGUUUAUCGAAUUUUCGACGGAUGCCUCCAAA | < 1e-05
34 | AUAAAAGCGCAAGAACUACAGAAAUGUAGUUGACGAGGGGGAGGUUUAUCGAAUUUUCGGCGGAUGCCUCCAAA | 0.000121 ± 2.7e-05
35 | AUAAAAGCGGCAAAACUACAGAAAUGUAGUUGACGAGGAGGAAGUUUAUUGAAUUUUCGGCGGAUGCCUCCAAA | < 1e-05

Variants of: B1
Experiment: self-cleavage kobs at 10000 uM GlcN6P; higher = faster cleavage; RNA array
Settings: with glucosamine-6-phosphate
Procedure, shortened: as §1

Row | Variant | self-cleavage kobs at 10000 uM GlcN6P [s⁻¹]
36 | AUAAAAGCGCAAGAACUACAGAAAUGUAGUUGACGAGGGGGAGGUUUAUCGAAUUUUCGGCGGAUGCCUCCAAA | 0.000422 ± 7.8e-05
37 | AUAAAAGCGGCAAAACUACAGAAAUGUAGUUGACGAGGAGGAAGUUUAUUGAAUUUUCGGCGGAUGCCUCCAAA | < 1e-05
